# Reference: paper PMC12575831
# System: PUS7 (pseudouridine synthase 7) (Homo sapiens)
# Experiment: EMSA
# Settings: 1 mM Mg2+; 40 nM RNA, 0-500 nM PUS7; none (unmodified IVT, U250); 10 mM Tris-HCl pH 7.5, 100 mM KCl, 1 mM MgCl2, 0.1 mM DTT, 5% glycerol; 37 °C 30 min; gel 4-20% TBE at 4 °C
substance,measurement,value
in vitro-transcribed 7SK snRNA,Kd,98 nM
